From patent US20220242939A1 (BIOARCTIC, published 2022)
Where a chain is given by its changes, count along the chain named. Non-standard residues stand in square brackets, D forms with d. No end group written: not given here. Ahx = NCCCCCC(=O)O

T1: G200 N-terminal neo-epitope peptide GQPLQE-Acp-C (SEQ ID NO:50) conjugated to BSA (human, not fully specified (residue 8); printed as GQPLQE-Acp-C; also: C-terminal Cys conjugated to BSA carrier)
T1 construct: also called G200-BSA peptide; G200-peptide
T1 peptide: GQPLQE[Ahx]C

T2: L198 N-terminal neo-epitope peptide LAGQPL-Acp-C (SEQ ID NO:52) conjugated to BSA (human, not fully specified (residue 8); printed as LAGQPL-Acp-C; also: C-terminal Cys conjugated to BSA carrier)
T2 construct: BSA carrier; also called L198-BSA peptide
T2 peptide: LAGQPL[Ahx]C

T3: negative control peptide AATVGSLAGQPLQER-Acp-C (SEQ ID NO:53) conjugated to BSA (human, not fully specified (residue 17); printed as AATVGSLAGQPLQER-Acp-C; also: C-terminal Cys conjugated to BSA carrier)
T3 construct: BSA carrier; also called 192-206 BSA-conjugated peptide
T3 peptide: AATVGSLAGQPLQER[Ahx]C

B1: 23D5, recombinant IgG2c antibody (antibody, V domains shown)
VH: EVQLVESGGGLVKPGGSLKLSCSASGFTFSRYAMSWVRQSPEKRLEWVAEINSGGSYSFYSDTVTGRFTISRDNAKNTLFLEMSSLRSEDTAIYYCARQLSGTDYYGTDYWGQGTSVTVSS
VL: DVLMTQTPLSLPVSHGDQASISCRSSQSLLYSNGNTYLEWYLQKPGQSPKLLIYKVSNRFSGVPDRFSGSGSGTDFTLKISRVEAEDLGVYYCFQGSHVPYTFGGGTKLEIK
B2: 28F2, recombinant IgG2c antibody (antibody, V domains shown)
VH: QIQLVQSGPDLKKPGETVKISCKASGYTFTNYAMHWMKQAPGKALKWMGWINTYTGEPTFADDFKGRFAFSLETSASTAYLQINSLKNEDMATYFCAREGYYDRSHYFDYWGQGTTLTVSS
VL: B1 VL with H15L, Q27L, L30V, Y31H, S32G, N33D, F94L, V99I, Y101F, G105S
B3: 17G4, recombinant IgG2c antibody (antibody, V domains shown)
VH: B1 VH with S101T
VL: B1 VL
B4: 7B10, recombinant IgG2c antibody (antibody, V domains shown)
VH: AVQLVESGGGLVKPGRSLKLSCAASGFTFSSYAMSWVRQFPDKRLDWVAEISSGGGSTNYLDTVTGRFTISRDNAKNTLYLEMNSLRSEDTAMYYCARQLVGTDYYGTDYWGQGTSVTVSS
VL: B1 VL with H15L, S28N, L29I, L30V
notes: also called 7610
B5: 7C7, recombinant IgG2c antibody (antibody, V domains shown)
VH: EVQLVESGGGLVKPGGSLRLSCAASGFTFSSFAMSWVRQSPERRLEWVAEISRGGGYAFYSDTVTGRFTISRDNARNTLFLEMGSLRSEDTAMYYCSRQLTGTDYYAMDYWGQGTSVTVSS
VL: B1 VL with M4L, P12F, H15L, L29I, L30V, S32T, H98Q, I111L
B6: 4E6, recombinant IgG2c antibody (antibody, V domains shown)
VH: EVQLVESGGDLVKPGGSLKLSCAASGFTFSSYAMSWVRQSPEKRLEWVAEISGSGSRDHYTDSVTGRFTVSRDNAKNTLYLEMSSLRSEDTAIYYCARQLTGTDYYGTDYWGQGTSVTVSS
VL: B1 VL with T7I, H15L, L29I, L30V, K44R, V99L
notes: also called recombinant anti-G200 antibody 4E6

Columns and labels:
[1] = target: T1, G200 N-terminal neo-epitope peptide …; assay: second direct ELISA, G200-BSA peptide coated at 1 µg/ml
Experimental: (§1) The screening was performed according to standard ELISA protocols. Briefly, 1 μg/ml solutions of BSA-conjugated neo-epitope peptides, recombinant C-terminal ApoE fragment, negative control peptide and full-length ApoE were prepared by dilution in PBS. 50 μl/well were added to an ELISA half-area 96 well microtiter plate, the plate was sealed with adhesive sealer and incubated over night at 4° C. After discarding the solution, the plates were blocked with 150 μl/well of protein-free blocking solution (Pierce) for 1 h at room temperature with shake (900 rpm). The plates were washed four times with washing buffer containing 0.28 mM NaH₂PO₄, 2.5 mM Na₂HPO₄, 150 mM NaCl, 0.1% TWEEN®-20 and 0.0075% Kathon CG. Generated recombinant antibodies of interest were serially diluted 3-fold with a starting dilution at 0.5 μg/ml (mixed 1:1 with dilution buffer: PBS with 0.1% BSA and 0.05% TWEEN®-20). An anti-ApoE C-terminal antibody was used as a reference antibody (ApoE E-8 mouse monoclonal, cat. no. sc-393302; Santa Cruz Biotechnology). 50 μl/well were added into the ELISA plates and incubated for 2 h at room temperature with shake (900 rpm). The plates were washed four times as described previously. […] After another wash (as described previously), 50 μl/well of K-Blue® aqueous substrate (Neogen) were added, and the reaction was stopped after 5-15 min with 50 μl/well of 0.5 M […]. The optical density at 450 nm was read using an ELISA reader (Tecan). The optical density was plotted against the antibody concentration to generate concentration-response curves (FIG. 16).
These were added in the same molarity (0.1 μM) to provide an equal number of molecules available for binding by the antibodies (BSA-coupled peptides were coated at 1 μg/ml as before).

[2] = target: T4, recombinant C-terminal ApoE fragment G200-HIS (ApoE-G200-H299-10xHIS) (human, UniProt P02649 218-317); assay: SPR (Biacore 8K), G200-HIS amine-coupled on CM5, antibody as analyte, bivalent analyte fit (ka1)
T4 construct: also called G200-HIS fragment
T4 sequence (P02649 other isoform, or with tags, fused parts or gaps limits assumed): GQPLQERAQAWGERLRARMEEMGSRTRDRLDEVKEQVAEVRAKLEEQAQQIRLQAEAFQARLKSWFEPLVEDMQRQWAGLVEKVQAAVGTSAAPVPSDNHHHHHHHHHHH

[3] = target: T2, L198 N-terminal neo-epitope peptide …; assay: direct ELISA, target coated at 1 ug/ml, antibody in 3-fold dilutions from 500 ng/ml, OD 450 nm
Experimental: (§2) Selectivity evaluation of recombinant antibodies by direct ELISA: The direct ELISA described below was used to evaluate the binding selectivity of the recombinant antibodies produced in Example 11.
as §1, with “(Tecan).” for “(Tecan). The optical density was plotted against the antibody concentration to generate concentration-response curves (FIG. 16).”

[4] = target: T3, negative control peptide …; assay: as above
Experimental: as §2
as §1, with “(Tecan).” for “(Tecan). The optical density was plotted against the antibody concentration to generate concentration-response curves (FIG. 16).”

[5] = target: T5, full-length ApoE in human brain extract from Alzheimer's disease patients (human, UniProt P02649 19-317); assay: Western blot of AD brain RIPA 2% SDS extract; recombinant antibody at 2 ug/ml as primary antibody
T5 construct: mature; Endogenous protein on Western blot or in solution (IP); also called ApoE full-length protein
T5 sequence (P02649 19-317): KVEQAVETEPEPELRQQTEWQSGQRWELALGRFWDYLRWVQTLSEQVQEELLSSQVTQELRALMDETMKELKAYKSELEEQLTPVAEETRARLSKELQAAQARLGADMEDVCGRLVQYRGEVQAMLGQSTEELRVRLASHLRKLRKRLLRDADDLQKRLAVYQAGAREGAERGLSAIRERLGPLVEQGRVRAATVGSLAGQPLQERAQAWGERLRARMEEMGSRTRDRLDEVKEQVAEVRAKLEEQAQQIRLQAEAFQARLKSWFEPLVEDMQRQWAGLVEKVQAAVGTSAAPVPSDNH

Binder	EC50 [1]	kon [2]	binding result [3]	binding result [4]	binding result [5]
B1	11.6 ng/mL	260000 M⁻¹ s⁻¹	no binding (tested: 500 ng/ml)	no binding (tested: 500 ng/ml)	no binding (tested: 2 ug/ml (text))
B2	7.2 ng/mL	4.98e+06 M⁻¹ s⁻¹	no binding (tested: 500 ng/ml)	no binding (tested: 500 ng/ml)	no binding (tested: 2 ug/ml (text))
B3	5.1 ng/mL	8.73e+06 M⁻¹ s⁻¹	no binding (tested: 500 ng/ml)	no binding (tested: 500 ng/ml)	no binding (tested: 2 ug/ml (text))
B4	7.3 ng/mL	1.2e+06 M⁻¹ s⁻¹	no binding (tested: 500 ng/ml)	no binding (tested: 500 ng/ml)	no binding (tested: 2 ug/ml (text))
B5	13 ng/mL	2.88e+06 M⁻¹ s⁻¹	no binding (tested: 500 ng/ml)	no binding (tested: 500 ng/ml)	no binding (tested: 2 ug/ml (text))
B6	6.9 ng/mL	8.15e+07 M⁻¹ s⁻¹	no binding (tested: 500 ng/ml)	no binding (tested: 500 ng/ml)	no binding (tested: 2 ug/ml (text))
